US20130115166A1 (CEPHALON AUSTRALIA, published 2013)
Where a chain is given by its changes, count along the chain named.

T1: IL-23 (HEK293E-derived) (human, UniProt P29460 23-328; Q9NPF7 20-189)
T1 sequence 1: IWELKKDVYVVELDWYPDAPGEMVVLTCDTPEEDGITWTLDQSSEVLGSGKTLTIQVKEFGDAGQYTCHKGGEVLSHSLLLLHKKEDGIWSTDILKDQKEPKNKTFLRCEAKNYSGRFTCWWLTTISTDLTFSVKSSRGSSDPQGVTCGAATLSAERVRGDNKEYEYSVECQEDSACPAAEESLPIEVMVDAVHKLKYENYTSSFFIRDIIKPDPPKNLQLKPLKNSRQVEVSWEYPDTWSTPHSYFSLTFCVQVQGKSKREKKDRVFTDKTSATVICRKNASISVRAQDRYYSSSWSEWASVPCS
T1 sequence 2: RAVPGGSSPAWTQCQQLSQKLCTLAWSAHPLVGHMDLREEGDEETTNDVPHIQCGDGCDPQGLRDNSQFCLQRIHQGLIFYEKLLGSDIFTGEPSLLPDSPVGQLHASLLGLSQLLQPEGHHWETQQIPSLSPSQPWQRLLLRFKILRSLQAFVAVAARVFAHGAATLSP

T2: Human IL-23 (human, UniProt P29460 23-328; Q9NPF7 20-189)
T2 construct: Heterodimer of IL-12p40 covalently linked to IL-23p19, purchased (Ebiosciences or RnD Systems); also called hIL-23; rhIL23
T2 sequence 1: T1 sequence 1
T2 sequence 2: T1 sequence 2

B1: E11E7Chimera (antibody, human IgG1, kappa, V domains shown)
VH: QVQLKESGPGLVQPSQTLSLTCTVSGFSLISYNVHWVRQPRGKGLEWMGVIWTGGSTDYNSVLKSRLSISRDTSKSQVFLKMHSLQTEDIGTYYCARDKYGLFPGYFDYWGQGVMVTVSS
VL: DIVMTQSPFSLAVSEGEMVTINCKPSQSLLSSGNRKNYLAWYQQKPGQSPKLLIYYASTRQSGVPDRFIGSGSGTDFTLTISDVQAEDLADYYCLQHFNYPWTFGGGTKLELKR
notes: Rat E11E7 variable regions on human constant regions; also called E11E7 chimeric antibody
B2: 21-4 (antibody, human IgG1, kappa, V domains shown)
VH: EVQLQQWGAGLLKPSETLSLTCAVYGFSLISYNVHWIRQPPGKGLEWIGVIWTGGSTDYNSVLKSRVTISRDTSKNQFSLKLSSVTAADTAVYYCARDKYGLFPGYFDYWGQGTLVTVSS
VL: EIVLTQSPATLSLSPGERATLSCKPSQSLLSSGNRKNYLAWYQQKPGQAPRLLIYYASTRQSGIPDRFSGSGSGTDFTLTISRLEPEDFAVYYCLQHFNYPWTFGGGTKVEIKR
notes: Humanized form of E11E7; also called humanized antibody 21-4
B3: 1-4 (antibody, human IgG1, kappa, V domains shown)
VH: B2 VH with F27G, L29F, I30S
VL: B2 VL
notes: Humanized form of E11E7; also called humanized antibody 1-4
B4: 18-4 (antibody, human IgG1, kappa, V domains shown)
VH: B2 VH with F27G, L29F, I30S, R71V
VL: B2 VL
notes: Humanized form of E11E7; also called humanized antibody 18-4
B5: 11-23 (antibody, human IgG1, kappa, V domains shown)
VH: QVQLQESGPGLVKPSETLSLTCTVSGGSISSYNVHWIRQPPGKGLEWIGVIWTGGSTDYNPSLKSRVTISRDTSKNQFSLKLSSVTAADTAVYYCARDKYGLFPGYFDYWGQGTLVTVSS
VL: DIVMTQTPLSLPVTPGEPASISCKPSQSLLSSGNRKNYLAWYLQKPGQSPQLLIYYASTRQSGVPDRFSGSGSGTDFTLKISRVEAEDVGVYYCLQHFNYPWTFGQGTKLEIKR
notes: Humanized form of E11E7; also called humanized antibody 11-23
B6: 5-23 (antibody, human IgG1, kappa, V domains shown)
VH: B5 VH with S30I
VL: B5 VL
notes: Humanized form of E11E7; also called humanized antibody 5-23
B7: 6-23 (antibody, human IgG1, kappa, V domains shown)
VH: B5 VH with G27F
VL: B5 VL
notes: Humanized form of E11E7; also called humanized antibody 6-23
B8: 7-23 (antibody, human IgG1, kappa, V domains shown)
VH: B5 VH with I29L
VL: B5 VL
notes: Humanized form of E11E7; also called humanized antibody 7-23
B9: 8-23 (antibody, human IgG1, kappa, V domains shown)
VH: B5 VH with G27F, I29L, S30I
VL: B5 VL
notes: Humanized form of E11E7; also called humanized antibody 8-23
B10: 9-23 (antibody, human IgG1, kappa, V domains shown)
VH: B5 VH with G27F, I29L, S30I, R71V
VL: B5 VL
notes: Humanized form of E11E7; also called humanized antibody 9-23
B11: 10-23 (antibody, human IgG1, kappa, V domains shown)
VH: B5 VH with R71V
VL: B5 VL
notes: Humanized form of E11E7; also called humanized antibody 10-23
B12: 16-12 (antibody, human IgG1, kappa, V domains shown)
VH: B5 VH with E16Q, G27F, I29L, S30I, P61S, S62V, I69M, L82V, S83N
VL: B2 VL with L4M, D66A, R83S, V110A
notes: Humanized form of E11E7; also called humanized antibody 16-12
B13: 13-12 (antibody, human IgG1, kappa, V domains shown)
VH: B5 VH with E16Q, G27F, I29L, S30I, P61S, S62V, I69M, R71V, L82V, S83N
VL: B2 VL with L4M, D66A, R83S, V110A
notes: Humanized form of E11E7; also called humanized antibody 13-12
B14: 14-12 (antibody, human IgG1, kappa, V domains shown)
VH: B5 VH with E16Q, P61S, S62V, I69M, L82V, S83N
VL: B2 VL with L4M, D66A, R83S, V110A
notes: Humanized form of E11E7; also called humanized antibody 14-12
B15: 15-12 (antibody, human IgG1, kappa, V domains shown)
VH: B5 VH with E16Q, P61S, S62V, I69M, R71V, L82V, S83N
VL: B2 VL with L4M, D66A, R83S, V110A
notes: Humanized form of E11E7; also called humanized antibody 15-12
B16: 11-22 (antibody, human IgG1, kappa, V domains shown)
VH: B5 VH
VL: DIVMTQSPDSLAVSLGERATINCKPSQSLLSSGNRKNYLAWYQQKPGQPPKLLIYYASTRQSGVPDRFSGSGSGTDFTLTISSLQAEDVAVYYCLQHFNYPWTFGQGTKLEIKR
notes: Humanized form of E11E7; also called humanized antibody 11-22
B17: 5-22 (antibody, human IgG1, kappa, V domains shown)
VH: B5 VH with S30I
VL: B16 VL
notes: Humanized form of E11E7; also called humanized antibody 5-22
B18: 7-22 (antibody, human IgG1, kappa, V domains shown)
VH: B5 VH with I29L
VL: B16 VL
notes: Humanized form of E11E7; also called humanized antibody 7-22
B19: 9-22 (antibody, human IgG1, kappa, V domains shown)
VH: B5 VH with G27F, I29L, S30I, R71V
VL: B16 VL
notes: Humanized form of E11E7; also called humanized antibody 9-22
B20: 10-22 (antibody, human IgG1, kappa, V domains shown)
VH: B5 VH with R71V
VL: B16 VL
notes: Humanized form of E11E7; also called humanized antibody 10-22

molecular target: T1, IL-23 (HEK293E-derived); assay: SPR (Biacore), antibody supernatant captured on Protein A, IL-23 at 5 ug/ml as analyte
Description: As a result of the humanization processes 22 humanized antibodies were produced and tested for their ability to bind human IL-23 (Table 4). Briefly, 2 mL transfections of the 22 humanized antibodies were screened for antibody expression level and binding activity via SPR. Protein A was immobilized onto FC1 and FC2 (or alternatively FC3 and FC4) of a CM5 research grade sensor chip using amine coupling, giving approximately 3000 RU. FC1 was used as a blank throughout the experiments. The experiments were run in HBS-P buffer (SPR). Antibody-containing cell culture supernatants were diluted in 10× HBS-P buffer at a ratio of 9:1. The diluted antibody was injected over FC2 at a flow rate of 20 μl/min. IL-23 (HEK293E-derived) was passed over the surface of FC1 and FC2 at a concentrations of 5 μg/ml as a kinetic injection with 5 min dissociation time across both
FC. Regeneration of the surface was performed using 10 mM Glycine, pH 1.5. The sensorgram data from FC2 were subtracted from FC1 and a buffer only control. […] The Sequence IDs of the variable heavy and light chains for each antibody are given in the Table 4 along with kd (off-rates) of selected tested antibodies.

**Q.** With B1 as the binder, how does the koff read?
**A.** Its koff is 5.98e-05 s⁻¹.

**Q.** With B2 as the binder, how does the koff read?
**A.** Its koff is 0.000191 s⁻¹.

**Q.** B3 was tested. Which koff did it give?
**A.** Its koff is 0.000616 s⁻¹.

**Q.** How did the koff turn out when B4 was run?
**A.** The koff was 0.00133 s⁻¹.

**Q.** How did the koff turn out when B5 was run?
**A.** Its koff is 0.00462 s⁻¹.

**Q.** With B6 as the binder, how does the koff read?
**A.** Its koff is 0.00639 s⁻¹.

**Q.** B7 was tested. Which koff did it give?
**A.** The koff was 0.000566 s⁻¹.

**Q.** For B8, which koff is on record?
**A.** The koff was 0.00391 s⁻¹.

**Q.** Which koff does the source give for B9 here?
**A.** Its koff is 0.000285 s⁻¹.

**Q.** How did the koff turn out when B10 was run?
**A.** Its koff is 0.00056 s⁻¹.

**Q.** With B11 as the binder, how does the koff read?
**A.** The koff was 0.013 s⁻¹.

**Q.** With B12 as the binder, how does the koff read?
**A.** Its koff is 0.000224 s⁻¹.

**Q.** With B13 as the binder, how does the koff read?
**A.** The koff was 0.000855 s⁻¹.

**Q.** For B14, which koff is on record?
**A.** The koff was 0.00349 s⁻¹.

**Q.** Which koff does the source give for B15 here?
**A.** The koff was 0.006 s⁻¹.

**Q.** How did the koff turn out when B16 was run?
**A.** Its koff is 0.00121 s⁻¹.

**Q.** How did the koff turn out when B17 was run?
**A.** The koff was 0.00198 s⁻¹.

**Q.** Which koff does the source give for B18 here?
**A.** The koff was 0.00102 s⁻¹.

**Q.** Which koff does the source give for B19 here?
**A.** Its koff is 0.000198 s⁻¹.

**Q.** For B20, which koff is on record?
**A.** Its koff is 0.00313 s⁻¹.

molecular target: T2, Human IL-23; assay: SPR (Biacore 3000), antibody captured on Protein A, IL-23 as analyte, 1:1 Langmuir fit
Description: (§1) Using a Biacore 3000, Protein A (Pierce) was immobilized on a CM5 chip using amine coupling chemistry to give 3000 Response Units (RU). Antibody was captured on the surface of the chip in flow cell 2 or 4 with a control surface in flow cell 1 or 3. Human IL-23 was then passed over both flow cells and the response units measured. The surface was then regenerated with 10 mM glycine pH 2.5. For a kinetic run this process was repeated with 5 dilutions of IL-23. Data was double referenced using an injection of running buffer before being fitted using a 1:1 Langmuir equation to determine ka, kd and KD.

**Q.** How did the kon turn out when B1 was run?
**A.** Its kon is 542000 M⁻¹ s⁻¹.

**Q.** B2 was tested. Which Kd did it give?
**A.** The Kd was 0.388 nM.

**Q.** And the koff?
**A.** Its koff is 0.000202 s⁻¹.

**Q.** What about the kon of the same binder?
**A.** The kon was 521000 M⁻¹ s⁻¹.

**Q.** With B3 as the binder, how does the Kd read?
**A.** The Kd was 2.11 nM.

**Q.** And the koff?
**A.** Its koff is 0.000733 s⁻¹.

**Q.** And the kon?
**A.** Its kon is 348000 M⁻¹ s⁻¹.

molecular target: T3, IL-12p40Fc (human); assay: ELISA, coated human IL-12p40-Fc, biotinylated antibody, streptavidin-HRP, mOD at 450 nm [panel C]
T3 construct: also called human p40-Fc; human IL-12p40-Fc fusion protein

**Q.** Does B1 bind?
**A.** Result: no binding (tested: 10 ug/ml)

molecular target: T4, IL-23Fc (human, UniProt Q9NPF7 20-189); assay: ELISA, coated human IL-23 (IL-23Fc), biotinylated antibody, streptavidin-HRP, mOD at 450 nm [panel A]
T4 construct: Produced in HEK293E
Description: A NuncMaxisorp 96-well plate was coated with human IL-23 diluted to […] in carbonate coating buffer and overnight incubation at 4° C. The plate was washed (three times in 1×PBS-Tween20 (0.05%)) then blocked for an hour with 1% BSA in PBS at room temperature. Biotinylated antibody was prepared starting from 10 μg/ml and serial half log dilutions were performed then 100 μl was added to the plate and incubated for an hour. The plate was washed and Streptavidin-HRP at 1:2000 dilution was added to all wells and further incubated for an hour. The plate was washed and subsequently developed using TMB (Sigma). The color development reaction was stopped by addition of an equal volume of 1M HCl. Absorbance of the resulting reaction was determined using a plate-based spectrophotometer.

**Q.** B1 was tested. Which “EC50 (read off the curve)” value did it give?
**A.** Its value is about 0.09 µg/mL.

molecular target: T2, Human IL-23; assay: SPR (Biacore 3000), antibody captured on Protein A, IL-23 as analyte, 1:1 Langmuir fit; below the limit of sensitivity
Description: as §1

**Q.** For B1, which Kd is on record?
**A.** Its Kd is under 0.1 nM.

**Q.** And the koff?
**A.** The koff was under 1e-05 s⁻¹.

molecular target: T2, Human IL-23; assay: competition ELISA: biotinylated hIL-23 (100 ng/ml) pre-incubated with antibody, binding to coated hIL23R-HIS detected with streptavidin-HRP; blocked partner IL-23R

**Q.** Which “IC50 (read off the curve)” value does the source give for B1 here?
**A.** Its value is about 0.04 µg/mL.
